Here are results for five molecules from article PMC9000958, “Sticks and Stones, a conserved cell surface ligand for the Type IIa RPTP Lar, regulates neural circuit wiring in Drosophila” (eLife, 2022).

For assay [1], the target named is Sticks and Stones (Sns), ectopically expressed in Tub>Sns embryos (Drosophila). Nature of the assay: immunostaining of cells or tissue; live-dissected stage 16 embryos (WT or Tub-GAL4 overexpression) incubated 2 hr at room temperature with AP or AP5 fusion protein supernatants (1x or concentrated), fixed in 4% paraformaldehyde, detected with anti-AP antibody; staining intensity compared with WT embryos.

Assay [2] addresses Nephrin or Sns (expressed in Tub>NPHS1 or Tub>Sns embryos). Described as above.
Assay [3] concerns the target Lar-Fc fusion protein (Drosophila) (UniProt P16621). Nature of the assay: ELISA; ECIA: Fc fusion bait (1x supernatant) captured by anti-human IgG (Fc-specific) on plate; AP5 fusion prey (1x supernatant) pre-clustered with anti-AP:biotin, overnight at room temperature; streptavidin:HRP, TMB, absorbance at 450 nm. (ELISA stands for enzyme-linked immunosorbent assay.)
Assay [4] addresses Lar, ectopically expressed in Tub>Lar embryos (Drosophila) (UniProt P16621). Nature of the assay: immunostaining of cells or tissue; live-dissected stage 16 embryos (WT or Tub-GAL4 overexpression) incubated 2 hr at room temperature with AP or AP5 fusion protein supernatants (1x or concentrated), fixed in 4% paraformaldehyde, detected with anti-AP antibody; staining intensity compared with WT embryos.

Assay [5] concerns the target Sns-AP5 fusion protein (Drosophila). The assay is described as follows: ELISA; ECIA with mi3 particles: AP5 bait (10 ng/ul) on streptavidin-coated plate; mi3 particles or Fc fusion proteins as prey at 10 ng/ul or 1x, overnight at room temperature; detected with anti-LAR or anti-human IgG (Fc) and anti-mouse:AP, BluePhos, absorbance at 650 nm; mi3 preys were purified, purification of bait not told.

Assay [6] addresses T1, human Nephrin, ectopically expressed in Tub>NPHS1 embryos (human, UniProt O60500 23-1241).
T1 construct: source: Drosophila embryos, UAS-linked full-length human Nephrin cDNA driven by Tub-GAL4, live-dissected stage 16
T1 sequence (looked up): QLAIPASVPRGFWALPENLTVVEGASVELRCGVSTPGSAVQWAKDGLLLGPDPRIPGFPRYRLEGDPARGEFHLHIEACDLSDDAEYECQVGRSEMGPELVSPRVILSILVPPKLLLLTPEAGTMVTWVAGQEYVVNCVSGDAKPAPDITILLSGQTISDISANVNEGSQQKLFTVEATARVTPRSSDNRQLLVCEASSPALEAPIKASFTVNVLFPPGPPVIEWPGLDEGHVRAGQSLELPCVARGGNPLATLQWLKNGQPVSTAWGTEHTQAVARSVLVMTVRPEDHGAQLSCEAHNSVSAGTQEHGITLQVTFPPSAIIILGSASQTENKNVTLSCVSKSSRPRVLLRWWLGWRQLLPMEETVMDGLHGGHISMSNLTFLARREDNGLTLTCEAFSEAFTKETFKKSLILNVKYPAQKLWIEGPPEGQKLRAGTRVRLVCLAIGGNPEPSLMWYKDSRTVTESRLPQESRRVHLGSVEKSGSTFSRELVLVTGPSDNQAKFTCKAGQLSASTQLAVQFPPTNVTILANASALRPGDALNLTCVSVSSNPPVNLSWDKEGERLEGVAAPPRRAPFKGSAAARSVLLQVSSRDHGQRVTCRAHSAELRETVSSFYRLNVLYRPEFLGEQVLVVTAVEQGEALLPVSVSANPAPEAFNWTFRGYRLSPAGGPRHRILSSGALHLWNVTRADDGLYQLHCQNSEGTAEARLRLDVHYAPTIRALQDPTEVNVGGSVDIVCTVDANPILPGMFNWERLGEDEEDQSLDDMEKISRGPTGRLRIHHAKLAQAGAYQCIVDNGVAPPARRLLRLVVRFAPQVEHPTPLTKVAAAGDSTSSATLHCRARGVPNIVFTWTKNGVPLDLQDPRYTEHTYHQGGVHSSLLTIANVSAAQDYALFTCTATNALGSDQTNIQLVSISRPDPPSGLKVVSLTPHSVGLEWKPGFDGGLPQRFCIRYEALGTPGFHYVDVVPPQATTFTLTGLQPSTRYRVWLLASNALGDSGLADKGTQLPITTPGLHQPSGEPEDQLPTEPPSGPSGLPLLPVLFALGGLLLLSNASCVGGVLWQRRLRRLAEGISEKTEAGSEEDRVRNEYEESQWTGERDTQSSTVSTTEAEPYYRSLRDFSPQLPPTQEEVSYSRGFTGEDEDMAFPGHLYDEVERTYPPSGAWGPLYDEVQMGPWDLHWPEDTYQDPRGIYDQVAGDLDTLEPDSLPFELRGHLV
The assay is described as follows: immunostaining of cells or tissue; live-dissected stage 16 embryos (WT or Tub-GAL4 overexpression) incubated 2 hr at room temperature with AP or AP5 fusion protein supernatants (1x or concentrated), fixed in 4% paraformaldehyde, detected with anti-AP antibody; staining intensity compared with WT embryos. As to conditions: partners not purified.

In the case of “Lar^HS2-alkaline phosphatase fusion protein (from UniProt P16621 33-1377) (domain or fragment)”, in assay [1], the fold increase in staining vs. WT embryos is more than 10 fold.

“PTPRF-AP5 fusion protein (from UniProt P10586 30-1263) (domain or fragment)”: the fold increase in staining vs. WT embryos in assay [2] was 18 to 20 fold.

“Sns-AP5 fusion protein (domain or fragment)” had a fold higher binding signal in assay [3] of 3 fold. The molecule further returned a fold increase in staining vs. WT embryos in assay [4] of 3 fold.

B1: 60-mer Lar particles on the mi3 nanoparticle scaffold (Fc fusion)
chain: AHPPEIIRKPQNQGVRVGGVASFYCAARGDPPPSIVWRKNGKKVSGTQSRYTVLEQPGGISILRIEPVRAGRDDAPYECVAENGVGDAVSADATLTIYEGDKTPAGFPVITQGPGTRVIEVGHTVLMTCKAIGNPTPNIYWIKNQTKVDMSNPRYSLKDGFLQIENSREEDQGKYECVAENSMGTEHSKATNLYVKVRRVPPTFSRPPETISEVMLGSNLNLSCIAVGSPMPHVKWMKGSEDLTPENEMPIGRNVLQLINIQESANYTCIAASTLGQIDSVSVVKVQSLPTAPTDVQISEVTATSVRLEWSYKGPEDLQYYVIQYKPKNANQAFSEISGIITMYYVVRALSPYTEYEFYVIAVNNIGRGPPSAPATCTTGETKMESAPRNVQVRTLSSSTMVITWEPPETPNGQVTGYKVYYTTNSNQPEASWNSQMVDNSELTTVSELTPHAIYTVRVQAYTSMGAGPMSTPVQVKAQQGVPSQPSNFRATDIGETAVTLQWTKPTHSSENIVHYELYWNDTYANQAHHKRISNSEAYTLDGLYPDTLYYIWLAARSQRGEGATTPPIPVRTKQYVPGAPPRNITAIATSSTTISLSWLPPPVERSNGRIIYYKVFFVEVGREDDEATTMTLNMTSIVLDELKRWTEYKIWVLAGTSVGDGPRSHPIILRTQEDVPGDPQDVKATPLNSTSIHVSWKPPLEKDRNGIIRGYHIHAQELRDEGKGFLNEPFKFDVVDTLEFNVTGLQPDTKYSIQVAALTRKGDGDRSAAIVVKTPGGVPVRPTVSLKIMEREPIVSIELEWERPAQTYGELRGYRLRWGVKDQALKEEMLSGPQMTKKRFDNLERGVEYEFRVAGSNHIGIGQETVKIFQTPEGTPGGPPSNITIRFQTPDVLCVTWDPPTREHRNGIITRYDVQFHKKIDHGLGSERNMTLRKAVFTNLEENTEYIFRVRAYTKQGAGPFSDKLIVETERDMGRAPMSLQAEATSEQTAEIWWEPVTSRGKLLGYKIFYTMTAVEDLDDWQTKTVGLTESADLVNLEKFAQYAVAIAARFKNGLGRLSEKVTVRIKPEDVPLNLRAHDVSTHSMTLSWSPPIRLTPVNYKISFDAMKVFVDSQGFSQTQIVPKREIILKHYVKTHTINELSPFTTYNVNVSAIPSDYSYRPPTKITVTTQMAAPQPMVKPDFYGVVNGEEILVILPQASEEYGPISHYYLVVVPEDKSNLHKIPDQFLTDDLLPGRNKPERPNAPYIAAKFPQRSIPFTFHLGSGDDYHNFTNRKLEREKRYRIFVRAVVDTPQKHLYTSSPFSEFLSLDMREAPPGERPHRPDPNWPAEPEVSVNRNKDEPE
In assay [5], B1 came in with a fold increase in binding signal of 7 fold and a fold weaker binding signal than Kirre on Sns-AP5 of 2 fold.

B2: PTPRD-AP5 fusion protein (domain or fragment, human, UniProt P23468 21-1265, looked up)
chain: ETPPRFTRTPVDQTGVSGGVASFICQATGDPRPKIVWNKKGKKVSNQRFEVIEFDDGSGSVLRIQPLRTPRDEAIYECVASNNVGEISVSTRLTVLREDQIPRGFPTIDMGPQLKVVERTRTATMLCAASGNPDPEITWFKDFLPVDTSNNNGRIKQLRSESIGGTPIRGALQIEQSEESDQGKYECVATNSAGTRYSAPANLYVRELREVRRVPPRFSIPPTNHEIMPGGSVNITCVAVGSPMPYVKWMLGAEDLTPEDDMPIGRNVLELNDVRQSANYTCVAMSTLGVIEAIAQITVKALPKPPGTPVVTESTATSITLTWDSGNPEPVSYYIIQHKPKNSEELYKEIDGVATTRYSVAGLSPYSDYEFRVVAVNNIGRGPPSEPVLTQTSEQAPSSAPRDVQARMLSSTTILVQWKEPEEPNGQIQGYRVYYTMDPTQHVNNWMKHNVADSQITTIGNLVPQKTYSVKVLAFTSIGDGPLSSDIQVITQTGVPGQPLNFKAEPESETSILLSWTPPRSDTIANYELVYKDGEHGEEQRITIEPGTSYRLQGLKPNSLYYFRLAARSPQGLGASTAEISARTMQSKPSAPPQDISCTSPSSTSILVSWQPPPVEKQNGIITEYSIKYTAVDGEDDKPHEILGIPSDTTKYLLEQLEKWTEYRITVTAHTDVGPGPESLSVLIRTNEDVPSGPPRKVEVEAVNSTSVKVSWRSPVPNKQHGQIRGYQVHYVRMENGEPKGQPMLKDVMLADAQWEFDDTTEHDMIISGLQPETSYSLTVTAYTTKGDGARSKPKLVSTTGAVPGKPRLVINHTQMNTALIQWHPPVDTFGPLQGYRLKFGRKDMEPLTTLEFSEKEDHFTATDIHKGASYVFRLSARNKVGFGEEMVKEISIPEEVPTGFPQNLHSEGTTSTSVQLSWQPPVLAERNGIITKYTLLYRDINIPLLPMEQLIVPADTTMTLTGLKPDTTYDVKVRAHTSKGPGPYSPSVQFRTLPVDQVFAKNFHVKAVMKTSVLLSWEIPENYNSAMPFKILYDDGKMVEEVDGRATQKLIVNLKPEKSYSFVLTNRGNSAGGLQHRVTAKTAPDVLRTKPAFIGKTNLDGMITVQLPEVPANENIKGYYIIIVPLKKSRGKFIKPWESPDEMELDELLKEISRKRRSIRYGREVELKPYIAAHFDVLPTEFTLGDDKHYGGFTNKQLQSGQEYVFFVLAVMEHAESKMYATSPYSDPVVSMDLDPQPITDEEE
notes: human PTPRD extracellular domain, amplified from a full-length cDNA; also called PTPδ; source: Drosophila S2 cells, transfected, supernatant
As for B2, the “fold increase in staining vs. WT embryos” value in assay [6] amounted to 3 fold.
